Source: patent US6017871A, “Protease-containing cleaning compositions” (The Procter & Gamble Company, priority 1997, dated 2000)
Numbered stars: 1 amine (or outer) side, 2 acyl side, 3 side chain; on linkers, the order of the positions; unused ones are H or OH. Peptide text beside a SMILES is read from it. * marks the point of attachment. pNA = O=[N+]([O-])c1ccc(N*)cc1; Suc = O=C(CCC(=O)[*:2])[*:1]

What was measured:
Experiment in all cases: Kinetic parameters for hydrolysis of synthetic peptide substrate
[1] = biological target: T1, Bacillus lentus subtilisin (GG36), wild type, Seq. ID No.10 (Lederbergia lenta, UniProt P29600); assay type: biochemical; conditions: Table III; 0.1 M Tris-HCL buffer, pH 8.6, 25° C.
T1 construct: The mature subtilisin protein is coded by the codons beginning at the codon GCG (334-336) corresponding to Ala; made in house; host or cells: Bacillus subtilis
T1 sequence (P29600 1-269): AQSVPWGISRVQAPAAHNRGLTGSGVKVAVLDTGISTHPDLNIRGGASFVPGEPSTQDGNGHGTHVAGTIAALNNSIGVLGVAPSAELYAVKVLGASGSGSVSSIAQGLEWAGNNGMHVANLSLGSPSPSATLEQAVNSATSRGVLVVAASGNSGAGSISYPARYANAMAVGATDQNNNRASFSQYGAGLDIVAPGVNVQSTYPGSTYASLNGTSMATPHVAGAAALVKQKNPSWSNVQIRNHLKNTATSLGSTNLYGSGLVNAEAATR
Description: (§1) The kinetic parameters kcat, KM, and kcat KM are measured for hydrolysis of the synthetic peptide substrate succinyl-L-Ala-L-Ala-L-Pro-L-Phe-p-nitroanilide using the method described in P. Bonneau et al. (1991) J. Am. Chem. Soc., Vol. 113, No. 3, p. 1030. Briefly, a small aliquot of subtilisin variant stock solution is added to a 1 cm cuvette containing substrate dissolved in 0.1 M Tris-HCL buffer, pH 8.6, and thermostated at 25° C. The reaction progress is followed spectrophotometrically by monitoring the absorbance of the reaction product p-nitroaniline at 410 nm. Kinetic parameters are obtained by using a non-linear regression algorithm to fit the reaction velocity and product concentration for each reaction to the Michaelis-Menten equation.
(§2) Numerous variants are made as per the teachings of these Protease Manufacture Examples. Kinetics data and stability data are generated for such variants. The kinetics data are generated using the methods described hereinbefore and are provided in Table V. The stability data are generated as detailed herein.

[2] = biological target: T2, B. amyloliquefaciens subtilisin (BPN'), wild type, Seq. ID No.7 (Bacillus amyloliquefaciens, UniProt P00782); assay type: biochemical; conditions: Table V; 0.1 M Tris-HCL buffer, pH 8.6, 25° C.
T2 construct: made in house; host or cells: protease-deficient Bacillus subtilis
Description: as §1, §2

[3] = substrate: C[C@H](NC(=O)CCC(=O)O)C(=O)N[C@@H](C)C(=O)N1CCC[C@H]1C(=O)N[C@@H](Cc1ccccc1)C(=O)Nc1ccc([N+](=O)[O-])cc1; assay type: biochemical, Bacillus lentus; conditions: other: Table III, 0.1 M Tris-HCL buffer, pH 8.6, 25° C.
Description: as §1, §2

[4] = substrate: C[C@H](NC(=O)CCC(=O)O)C(=O)N[C@@H](C)C(=O)N1CCC[C@H]1C(=O)N[C@@H](Cc1ccccc1)C(=O)Nc1ccc([N+](=O)[O-])cc1; assay type: biochemical, Bacillus lentus; conditions: other: Table III, 0.1 M Tris-HCL buffer, pH 8.6, 25° C.; remark: listed apart in the source
Description: as §1

[5] = substrate: C[C@H](NC(=O)CCC(=O)O)C(=O)N[C@@H](C)C(=O)N1CCC[C@H]1C(=O)N[C@@H](Cc1ccccc1)C(=O)Nc1ccc([N+](=O)[O-])cc1; assay type: biochemical, Bacillus amyloliquefaciens; conditions: other: Table V, 0.1 M Tris-HCL buffer, pH 8.6, 25° C.
Description: as §1, §2

T2 sequence (P00782 108-382): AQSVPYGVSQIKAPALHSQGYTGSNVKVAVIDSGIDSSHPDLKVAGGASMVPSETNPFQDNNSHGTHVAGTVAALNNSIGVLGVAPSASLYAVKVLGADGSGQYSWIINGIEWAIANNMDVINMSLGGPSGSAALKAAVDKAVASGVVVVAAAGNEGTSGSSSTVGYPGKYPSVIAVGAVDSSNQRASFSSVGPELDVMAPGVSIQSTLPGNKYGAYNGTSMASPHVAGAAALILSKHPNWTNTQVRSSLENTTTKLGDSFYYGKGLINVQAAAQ

Question: How did the “kcat/KM” value [1] turn out when `C[C@H](NC(=O)CCC(=O)O)C(=O)N[C@@H](C)C(=O)N1CCC[C@H]1C(=O)N[C@@H](Cc1ccccc1)C(=O)Nc1ccc([N+](=O)[O-])cc1` [succinyl-L-Ala-L-Ala-L-Pro-L-Phe-p-nitroanilide] (Suc-AAPF-pNA) was run?
Answer: Its value is 218000 s⁻¹ M⁻¹.

Question: What about the kcat [2] of the same molecule?
Answer: Its kcat is 50 s⁻¹.

Question: What about the kcat/KM [2] of the same molecule?
Answer: Its kcat/KM is 3.60E + 05 s^-1 M^-1.

B1: Bacillus lentus subtilisin (GG36), wild type, Seq. ID No.10 (Lederbergia lenta) (protein)
chain: AQSVPWGISRVQAPAAHNRGLTGSGVKVAVLDTGISTHPDLNIRGGASFVPGEPSTQDGNGHGTHVAGTIAALNNSIGVLGVAPSAELYAVKVLGASGSGSVSSIAQGLEWAGNNGMHVANLSLGSPSPSATLEQAVNSATSRGVLVVAASGNSGAGSISYPARYANAMAVGATDQNNNRASFSQYGAGLDIVAPGVNVQSTYPGSTYASLNGTSMATPHVAGAAALVKQKNPSWSNVQIRNHLKNTATSLGSTNLYGSGLVNAEAATR
notes: The mature subtilisin protein is coded by the codons beginning at the codon GCG (334-336) corresponding to Ala; made in house; host or cells: Bacillus subtilis
Question: Which Km [3] does the source give for B1 here?
Answer: Its Km is 780 µM.

Question: And the kcat [3]?
Answer: The kcat was 170 s⁻¹.

Question: What about the kcat/Km [3] of the same molecule?
Answer: Its kcat/Km is 2.20E + 05 s^-1 M^-1.

B2: Bacillus lentus subtilisin variant N76D/N123S (Protease #6) (Lederbergia lenta; N121S/N74D) (protein)
chain: AQSVPWGISRVQAPAAHNRGLTGSGVKVAVLDTGISTHPDLNIRGGASFVPGEPSTQDGNGHGTHVAGTIAALDNSIGVLGVAPSAELYAVKVLGASGSGSVSSIAQGLEWAGNNGMHVASLSLGSPSPSATLEQAVNSATSRGVLVVAASGNSGAGSISYPARYANAMAVGATDQNNNRASFSQYGAGLDIVAPGVNVQSTYPGSTYASLNGTSMATPHVAGAAALVKQKNPSWSNVQIRNHLKNTATSLGSTNLYGSGLVNAEAATR
notes: as for B1
Question: With B2 as the molecule, how does the Km [4] read?
Answer: Its Km is 1800 µM.

Question: And the kcat [4]?
Answer: The kcat was 115 s⁻¹.

Question: And the kcat/Km [4]?
Answer: The kcat/Km was 64000 s⁻¹ M⁻¹.

B3: Bacillus lentus subtilisin variant N76D/S101R (Protease #2) (Lederbergia lenta; N74D/S99R) (protein)
chain: AQSVPWGISRVQAPAAHNRGLTGSGVKVAVLDTGISTHPDLNIRGGASFVPGEPSTQDGNGHGTHVAGTIAALDNSIGVLGVAPSAELYAVKVLGASGRGSVSSIAQGLEWAGNNGMHVANLSLGSPSPSATLEQAVNSATSRGVLVVAASGNSGAGSISYPARYANAMAVGATDQNNNRASFSQYGAGLDIVAPGVNVQSTYPGSTYASLNGTSMATPHVAGAAALVKQKNPSWSNVQIRNHLKNTATSLGSTNLYGSGLVNAEAATR
notes: as for B1
Question: How did the Km [4] turn out when B3 was run?
Answer: Its Km is 1300 µM.

Question: And the kcat [4]?
Answer: The kcat was 371 s⁻¹.

Question: What about the kcat/Km [4] of the same molecule?
Answer: Its kcat/Km is 285000 s⁻¹ M⁻¹.

B4: Bacillus lentus subtilisin variant N76D/I107V (Protease #5) (Lederbergia lenta; I105V/N74D) (protein)
chain: AQSVPWGISRVQAPAAHNRGLTGSGVKVAVLDTGISTHPDLNIRGGASFVPGEPSTQDGNGHGTHVAGTIAALDNSIGVLGVAPSAELYAVKVLGASGSGSVSSVAQGLEWAGNNGMHVANLSLGSPSPSATLEQAVNSATSRGVLVVAASGNSGAGSISYPARYANAMAVGATDQNNNRASFSQYGAGLDIVAPGVNVQSTYPGSTYASLNGTSMATPHVAGAAALVKQKNPSWSNVQIRNHLKNTATSLGSTNLYGSGLVNAEAATR
notes: as for B1
Question: For B4, which Km [4] is on record?
Answer: The Km was 1100 µM.

Question: What about the kcat [4] of the same molecule?
Answer: Its kcat is 219 s⁻¹.

Question: And the kcat/Km [4]?
Answer: Its kcat/Km is 199000 s⁻¹ M⁻¹.

B5: Bacillus lentus subtilisin variant N76D/S99D (Protease #1) (Lederbergia lenta; N74D/S97D) (protein)
chain: AQSVPWGISRVQAPAAHNRGLTGSGVKVAVLDTGISTHPDLNIRGGASFVPGEPSTQDGNGHGTHVAGTIAALDNSIGVLGVAPSAELYAVKVLGADGSGSVSSIAQGLEWAGNNGMHVANLSLGSPSPSATLEQAVNSATSRGVLVVAASGNSGAGSISYPARYANAMAVGATDQNNNRASFSQYGAGLDIVAPGVNVQSTYPGSTYASLNGTSMATPHVAGAAALVKQKNPSWSNVQIRNHLKNTATSLGSTNLYGSGLVNAEAATR
notes: as for B1
Question: For B5, which Km [4] is on record?
Answer: Its Km is 610 µM.

Question: What about the kcat [4] of the same molecule?
Answer: The kcat was 88 s⁻¹.

Question: What about the kcat/Km [4] of the same molecule?
Answer: Its kcat/Km is 144000 s⁻¹ M⁻¹.

B6: Bacillus lentus subtilisin variant N76D/S99D/S101R (Protease #7) (Lederbergia lenta; N74D/S97D/S99R) (protein)
chain: AQSVPWGISRVQAPAAHNRGLTGSGVKVAVLDTGISTHPDLNIRGGASFVPGEPSTQDGNGHGTHVAGTIAALDNSIGVLGVAPSAELYAVKVLGADGRGSVSSIAQGLEWAGNNGMHVANLSLGSPSPSATLEQAVNSATSRGVLVVAASGNSGAGSISYPARYANAMAVGATDQNNNRASFSQYGAGLDIVAPGVNVQSTYPGSTYASLNGTSMATPHVAGAAALVKQKNPSWSNVQIRNHLKNTATSLGSTNLYGSGLVNAEAATR
notes: as for B1
Question: B6 was tested. Which Km [4] did it give?
Answer: Its Km is 380 µM.

Question: What about the kcat [4] of the same molecule?
Answer: The kcat was 146 s⁻¹.

Question: What about the kcat/Km [4] of the same molecule?
Answer: Its kcat/Km is 384000 s⁻¹ M⁻¹.

B7: Bacillus lentus subtilisin variant N76D/V104I (Protease #4) (Lederbergia lenta; N74D/V102I) (protein)
chain: AQSVPWGISRVQAPAAHNRGLTGSGVKVAVLDTGISTHPDLNIRGGASFVPGEPSTQDGNGHGTHVAGTIAALDNSIGVLGVAPSAELYAVKVLGASGSGSISSIAQGLEWAGNNGMHVANLSLGSPSPSATLEQAVNSATSRGVLVVAASGNSGAGSISYPARYANAMAVGATDQNNNRASFSQYGAGLDIVAPGVNVQSTYPGSTYASLNGTSMATPHVAGAAALVKQKNPSWSNVQIRNHLKNTATSLGSTNLYGSGLVNAEAATR
notes: as for B1
Question: What does the source list for B7?
Answer: Km [4]: 1100 µM; kcat [4]: 459 s⁻¹; kcat/Km [4]: 417000 s⁻¹ M⁻¹

B8: Bacillus lentus subtilisin variant N76D (Lederbergia lenta; N74D) (protein)
chain: AQSVPWGISRVQAPAAHNRGLTGSGVKVAVLDTGISTHPDLNIRGGASFVPGEPSTQDGNGHGTHVAGTIAALDNSIGVLGVAPSAELYAVKVLGASGSGSVSSIAQGLEWAGNNGMHVANLSLGSPSPSATLEQAVNSATSRGVLVVAASGNSGAGSISYPARYANAMAVGATDQNNNRASFSQYGAGLDIVAPGVNVQSTYPGSTYASLNGTSMATPHVAGAAALVKQKNPSWSNVQIRNHLKNTATSLGSTNLYGSGLVNAEAATR
notes: as for B1
Question: Which Km [4] does the source give for B8 here?
Answer: Its Km is 800 µM.

Question: What about the kcat [4] of the same molecule?
Answer: Its kcat is 219 s⁻¹.

Question: And the kcat/Km [4]?
Answer: Its kcat/Km is 274000 s⁻¹ M⁻¹.

B9: Bacillus lentus subtilisin variant N76D/S103A (Protease #3) (Lederbergia lenta; N74D/S101A) (protein)
chain: AQSVPWGISRVQAPAAHNRGLTGSGVKVAVLDTGISTHPDLNIRGGASFVPGEPSTQDGNGHGTHVAGTIAALDNSIGVLGVAPSAELYAVKVLGASGSGAVSSIAQGLEWAGNNGMHVANLSLGSPSPSATLEQAVNSATSRGVLVVAASGNSGAGSISYPARYANAMAVGATDQNNNRASFSQYGAGLDIVAPGVNVQSTYPGSTYASLNGTSMATPHVAGAAALVKQKNPSWSNVQIRNHLKNTATSLGSTNLYGSGLVNAEAATR
notes: as for B1
Question: Which Km [4] does the source give for B9 here?
Answer: Its Km is 1400 µM.

Question: And the kcat [4]?
Answer: The kcat was 400 s⁻¹.

Question: And the kcat/Km [4]?
Answer: The kcat/Km was 286000 s⁻¹ M⁻¹.

B10: B. amyloliquefaciens subtilisin (BPN') variant BPN'-N76D/Y217L (Bacillus amyloliquefaciens; N183D/Y324L) (protein)
chain: AQSVPYGVSQIKAPALHSQGYTGSNVKVAVIDSGIDSSHPDLKVAGGASMVPSETNPFQDNNSHGTHVAGTVAALDNSIGVLGVAPSASLYAVKVLGADGSGQYSWIINGIEWAIANNMDVINMSLGGPSGSAALKAAVDKAVASGVVVVAAAGNEGTSGSSSTVGYPGKYPSVIAVGAVDSSNQRASFSSVGPELDVMAPGVSIQSTLPGNKYGALNGTSMASPHVAGAAALILSKHPNWTNTQVRSSLENTTTKLGDSFYYGKGLINVQAAAQ
notes: made in house; host or cells: protease-deficient Bacillus subtilis
Question: B10 was tested. Which Km [5] did it give?
Answer: The Km was 460 µM.

Question: What about the kcat [5] of the same molecule?
Answer: Its kcat is 380 s⁻¹.

Question: And the kcat/Km [5]?
Answer: The kcat/Km was 8.30E + 05 s^-1 M^-1.
